Positions count from the first letter of the chain named. Each block holds one binder with its values, some of them ahead of it.
Tests used:
[1] = molecular target: T1, huZIP12-ECD-GST (human, UniProt Q504Y0); experiment: SPR, extended dissociation re-test
[2] = molecular target: T1, huZIP12-ECD-GST; experiment: SPR

B3: 51B12 parent (51B12_VH_VL-par) (antibody, V domains shown)
VH: QVQLVESGGGVVQPGRSLRLSCAASGFTFSDYGMHWVRQAPGKGLEWVAYISSGGTTIYYADTVKGRFTISRDNSKNTLYLQMNSLRAEDTAVYYCARWTNLYAMDYWGQGTTVTVSS
VL: DIVLTQSPDSLAVSLGERATINCRASKSVSTSGYSYMHWYQQKPGQPPKFLIYLASNLESGVPDRFSGSGSGTDFTLTISSLQAEDVAVYYCQHSREVPYTFGGGTKVEIKR
- Kd [1]: 1.1 nM

B4: H3_W99H_L2 (antibody, V domains shown)
VH: B3 VH with W99H
VL: B3 VL with L58K
- Kd [1]: ~0.3 nM
- Kd [2]: ~0.5 nM

The remaining binders from weak to strong by Kd [1], led by results:

- Kd [1]: ~0.3 nM
- Kd [2]: ~0.5 nM
B1: H3_W99H_VL-par (antibody, V domains shown)
VH: B3 VH with W99H
VL: B3 VL

- Kd [1]: ~0.3 nM
B2: H3_W99H_L1 (51B12_W99H_L1) (antibody, V domains shown)
VH: B3 VH with W99H
VL: B3 VL with S32Q

Source: patent US20260297183 (published 2026)
